Data from patent publication US6946256.

Biological target: T1, TAp63γ (UniProt Q9H3D4)
T1 sequence: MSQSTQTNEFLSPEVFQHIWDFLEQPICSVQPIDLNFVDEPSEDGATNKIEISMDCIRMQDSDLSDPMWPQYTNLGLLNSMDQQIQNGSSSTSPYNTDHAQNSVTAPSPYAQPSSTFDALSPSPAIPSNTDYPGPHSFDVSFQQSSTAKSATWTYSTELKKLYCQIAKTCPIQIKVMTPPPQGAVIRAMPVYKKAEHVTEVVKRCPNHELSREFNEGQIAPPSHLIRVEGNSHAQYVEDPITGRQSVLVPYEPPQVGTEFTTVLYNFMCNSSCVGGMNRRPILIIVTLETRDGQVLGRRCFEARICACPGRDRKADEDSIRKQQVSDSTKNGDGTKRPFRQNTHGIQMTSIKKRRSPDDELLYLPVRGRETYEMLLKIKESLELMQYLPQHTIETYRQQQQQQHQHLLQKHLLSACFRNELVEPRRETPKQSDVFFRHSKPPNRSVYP
Assay: cell_activity
Conditions: Saos-2 reporter, levels approaching 80% of p53

PG-13 β-galactosidase reporter (multiple copies of minimal p53 binding sequence)
activity: 80 % of p53
